Target: Recombinant full-length human α-synuclein (1–140) (human, UniProt P37840 1-140)
Assay: turbidity of phase separation (absorbance at 350 nm)
Settings: both partners purified

B1: PrP 23–144 (Y145Stop) (domain or fragment)
chain: KKRPKPGGWNTGGSRYPGQGSPGGNRYPPQGGGGWGQPHGGGWGQPHGGGWGQPHGGGWGQPHGGGWGQGGGTHSQWNKPSKPKTNMKHMAGAAAAGAVVGGLGGYMLGSAMSRPIIHFGSD
B1: binds.

From paper PMC8894376 (Nature Communications, 2022)
